The target of assay [1] is T1, NfL-His重组蛋白 (神经丝轻链蛋白, Neurofilament light chain) (Homo sapiens (Human), UniProt P07196 1-543).
T1 construct: Recombinant, expressed in 293F cells, C-terminal His tag; used as immunogen, sorting antigen and screening antigen; also called NfL-His蛋白
T1 sequence: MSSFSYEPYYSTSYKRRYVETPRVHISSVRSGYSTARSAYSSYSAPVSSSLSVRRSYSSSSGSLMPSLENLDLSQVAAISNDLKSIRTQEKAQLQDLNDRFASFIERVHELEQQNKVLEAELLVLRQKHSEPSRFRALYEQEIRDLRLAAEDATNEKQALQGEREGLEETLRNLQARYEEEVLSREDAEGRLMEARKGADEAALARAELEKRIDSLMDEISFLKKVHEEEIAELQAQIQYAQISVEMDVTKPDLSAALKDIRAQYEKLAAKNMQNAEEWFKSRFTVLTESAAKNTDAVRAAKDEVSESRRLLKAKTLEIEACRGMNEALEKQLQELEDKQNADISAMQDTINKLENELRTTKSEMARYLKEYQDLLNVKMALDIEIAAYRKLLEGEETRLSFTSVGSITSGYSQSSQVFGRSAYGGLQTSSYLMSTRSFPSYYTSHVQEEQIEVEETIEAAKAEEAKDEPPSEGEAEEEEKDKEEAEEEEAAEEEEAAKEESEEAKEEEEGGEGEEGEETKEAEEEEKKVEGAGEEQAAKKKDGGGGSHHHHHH
As to the kind of experiment: sandwich ELISA, fixed antibody of the pair. (In general: In an ELISA, binding on a coated surface is turned into a signal by an enzyme label.)

Assay [2] deals with T1, NfL-His重组蛋白 (神经丝轻链蛋白, Neurofilament …). Description: sandwich chemiluminescence, NfL at 10000pg/mL, Rabbit anti-NfL mAb on beads as capture, acridinium ester labelled antibody as detection.

B1: Rabbit anti-NfL mAb (antibody, V domains shown)
VH: QSVEESGGRLVTPGTPLTLTCTASGIDLSNYAMNWVHQAPGKGLEWIAIIYASGSTYYTTWAKGRFTISKTSSTTVDLKITSPTTEDTATYFCARALSMTNVYTFNIWGPGTLVTVSS
VL: DVVMTQTPASVSEPVGGTVTIKCQASQNIYNNLAWYQQKPGQPPKLLIYKASTLASGVSSRFKGSGSGTEFTLTISDLECADAATYYCQCTYGSSYVAFGGGTEVVVK
notes: Rabbit monoclonal antibody developed earlier by the applicant; Used as the fixed capture antibody (coupled to magnetic beads in the chemiluminescence assay); also called 包被抗体; 配对抗体
As to B1, the binding result in assay [1] was “binds”.

B2: Anti-NfL-rRmab-1 (antibody, V domains shown)
VH: QSVEESGGRLVTPGTPLTLTCTASGFSLSIHDMSWVRQAPGKGLEWIGLISSNNNTYYASWAKGRFTISKTSTTVDLKITSPTTEDTATYFCARGGFSTDLWGPGTPVTVSS
VL: DVVMTQTPASVSEPVGGTVTIKCQASQSIYTYLSWYQQKPGQPPKLLIYGASNLASGVSSRFKGSGSGTDYTLTISGVQCDDAATYYCQCTYFSSSYVGGFGGGTEVVVK
notes: Labelled with acridinium ester as the detection antibody in the chemiluminescence assay; also called NfL特异性抗体; 优选抗体
Regarding B2, in assay [2], the binding result is listed as “binds”.

Source of the values: patent CN117624356A (VAZYME MEDICAL CO LTD; HUNAN NOVAZYME MEDICAL TECH CO LTD, dated 2024).
